The text below walks through data of the supplement of paper PMC9112550, “Optimization of the antimicrobial peptide Bac7 by deep mutational scanning” (BMC Biology, 2022).

The subject of the series is Escherichia coli TOP10. Kind of series: shrunken log2 fold change of peptide-encoding DNA abundance (4.5 h post-induction vs induction); higher = less antimicrobial activity (less host growth inhibition). The settings on record: time post-induction: 4.5 h; library: site-saturation at positions 5, 18, 19, 20.
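Also: peptides expressed intracellularly from a pBAD plasmid library in pooled LB shake-flask culture, induced with 0.3% L-arabinose, DNA abundance read by NGS, three biological replicates, DESeq2 with apeglm shrinkage.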

As to RRIRTRPPRLPRPRPRPMNAPRP, the “shrunken log2 fold change” value was 0.194. For RRIRVRPPRLPRPRPRPYEQPRP the value was -0.285. As for RRIRVRPPRLPRPRPRPTECPRP, the figure is 0.00778. For RRIRWRPPRLPRPRPRPEHIPRP the value was -0.14; for RRIRYRPPRLPRPRPRPQQYPRP, -1. Turning to RRIRTRPPRLPRPRPRPMNQPRP, the “shrunken log2 fold change” value was -0.941.

As for RRIRRRPPRLPRPRPRPIHYPRP, the “shrunken log2 fold change” value was -0.359.

Turning to RRIRIRPPRLPRPRPRPTQHPRP, the “shrunken log2 fold change” value came to 0.0549. Consider RRIRTRPPRLPRPRPRPWYMPRP, for which the “shrunken log2 fold change” value was -0.0891. For RRIRARPPRLPRPRPRPMVDPRP the value was 0.299. As for RRIRTRPPRLPRPRPRPNTGPRP, the figure is -0.388.

Consider RRIRLRPPRLPRPRPRPKPEPRP, for which the “shrunken log2 fold change” value worked out at 0.249. As for RRIRMRPPRLPRPRPRPCAGPRP, the figure is 0.213. For RRIRTRPPRLPRPRPRPSVKPRP the value was -0.177; for RRIRLRPPRLPRPRPRPHAWPRP, 0.62; for RRIRARPPRLPRPRPRPERWPRP, 0.956. As for RRIRFRPPRLPRPRPRPLCDPRP, the figure is -0.196; as for RRIRDRPPRLPRPRPRPIKQPRP, -0.00204; as for RRIRGRPPRLPRPRPRPQNAPRP, 0.00487. With RRIRTRPPRLPRPRPRPQHEPRP, the “shrunken log2 fold change” value was -0.00128.

For the sequence RRIRIRPPRLPRPRPRPDQVPRP, the “shrunken log2 fold change” value is -0.117. As for RRIRDRPPRLPRPRPRPWFQPRP, the figure is -0.0572; as for RRIRRRPPRLPRPRPRPNTVPRP, -0.107; as for RRIRHRPPRLPRPRPRPKSYPRP, -0.245. As for RRIRNRPPRLPRPRPRPPIYPRP, the figure is -0.202; as for RRIRARPPRLPRPRPRPDDAPRP, 0.138; as for RRIRSRPPRLPRPRPRPVSDPRP, 0.32.

Turning to RRIRRRPPRLPRPRPRPHQDPRP, the “shrunken log2 fold change” value stood at 0.0414.

Turning to RRIRHRPPRLPRPRPRPVGWPRP, the “shrunken log2 fold change” value came to 0.535. As for RRIRVRPPRLPRPRPRPIPWPRP, the figure is -0.232; as for RRIRMRPPRLPRPRPRPHKPPRP, 0.0226; as for RRIRDRPPRLPRPRPRPMMEPRP, 0.0314.

For RRIRPRPPRLPRPRPRPRHLPRP, the “shrunken log2 fold change” value is -0.0836. As for RRIRSRPPRLPRPRPRPCGVPRP, the figure is 0.0491. For RRIRERPPRLPRPRPRPGNWPRP the value was -0.0108. As for RRIRGRPPRLPRPRPRPYYPPRP, the figure is -0.791. With RRIRSRPPRLPRPRPRPVVRPRP, the “shrunken log2 fold change” value came to 0.367. As for RRIRDRPPRLPRPRPRPTPYPRP, the figure is -0.13; as for RRIRQRPPRLPRPRPRPSDDPRP, -0.0143. As for RRIRQRPPRLPRPRPRPIHVPRP, the figure is -0.15; as for RRIRTRPPRLPRPRPRPNKLPRP, -0.127; as for RRIRYRPPRLPRPRPRPPTKPRP, 0.444. As for RRIRGRPPRLPRPRPRPTWLPRP, the figure is 2.72; as for RRIRYRPPRLPRPRPRPLRNPRP, -0.277; as for RRIRNRPPRLPRPRPRPCHGPRP, -0.00208. RRIRCRPPRLPRPRPRPVEEPRP: the “shrunken log2 fold change” value was -0.0384. RRIRPRPPRLPRPRPRPEDMPRP: the “shrunken log2 fold change” value is -0.927. As for RRIRMRPPRLPRPRPRPHWNPRP, the figure is -0.271. For RRIRWRPPRLPRPRPRPFWMPRP the value was -0.235; for RRIRFRPPRLPRPRPRPHSYPRP, -0.0495. Take RRIRKRPPRLPRPRPRPWQFPRP: the “shrunken log2 fold change” value was found to be 0.157. For RRIRLRPPRLPRPRPRPTHPPRP the value was 0.0349; for RRIRTRPPRLPRPRPRPQCDPRP, -0.184. For RRIRERPPRLPRPRPRPHCGPRP the value was -0.333; for RRIRTRPPRLPRPRPRPIRFPRP, -0.0183. As for RRIRGRPPRLPRPRPRPMEPPRP, the figure is 0.245; as for RRIRPRPPRLPRPRPRPGEKPRP, -0.0882; as for RRIRERPPRLPRPRPRPMDGPRP, 0.0211. For RRIRDRPPRLPRPRPRPCMRPRP, the “shrunken log2 fold change” value was 0.311.

RRIRFRPPRLPRPRPRPEPSPRP: the “shrunken log2 fold change” value stood at 0.378. For RRIRIRPPRLPRPRPRPGQWPRP the value was -0.124; for RRIRYRPPRLPRPRPRPNVHPRP, -0.745; for RRIRKRPPRLPRPRPRPYIWPRP, -0.126. On to RRIRFRPPRLPRPRPRPKIYPRP, for which the “shrunken log2 fold change” value was -0.328. As for RRIRQRPPRLPRPRPRPWKQPRP, the figure is -0.08; as for RRIRGRPPRLPRPRPRPVQPPRP, 0.95.

For RRIRMRPPRLPRPRPRPPMYPRP, the “shrunken log2 fold change” value was -0.0977. For RRIRLRPPRLPRPRPRPYQGPRP the value was -0.388; for RRIRRRPPRLPRPRPRPAMFPRP, 0.372. As for RRIRHRPPRLPRPRPRPSDMPRP, the figure is 2.66.

On to RRIRIRPPRLPRPRPRPATPPRP, for which the “shrunken log2 fold change” value amounted to 0.0979. As for RRIRVRPPRLPRPRPRPRWNPRP, the figure is 0.132; as for RRIRTRPPRLPRPRPRPDDAPRP, -0.0135; as for RRIRVRPPRLPRPRPRPFECPRP, -0.0624. As for RRIRERPPRLPRPRPRPMHVPRP, the figure is 0.05; as for RRIRPRPPRLPRPRPRPGQAPRP, -0.0745. As for RRIRVRPPRLPRPRPRPVVWPRP, the figure is 0.385. RRIRWRPPRLPRPRPRPHYEPRP: the “shrunken log2 fold change” value is -0.209. For RRIRSRPPRLPRPRPRPYEAPRP the value was -0.241; for RRIRIRPPRLPRPRPRPPVRPRP, 0.172; for RRIRVRPPRLPRPRPRPVFFPRP, -0.0099. As for RRIRARPPRLPRPRPRPLIKPRP, the figure is 0.0844; as for RRIRKRPPRLPRPRPRPRLNPRP, 0.489. Turning to RRIRERPPRLPRPRPRPITKPRP, the “shrunken log2 fold change” value was -0.107.

Regarding RRIRPRPPRLPRPRPRPYIGPRP, the “shrunken log2 fold change” value is -0.184. As for RRIRHRPPRLPRPRPRPGHRPRP, the figure is -0.0928; as for RRIRDRPPRLPRPRPRPWTFPRP, -0.22. As for RRIRGRPPRLPRPRPRPVFMPRP, the figure is 0.0348; as for RRIRERPPRLPRPRPRPDGMPRP, -0.0237; as for RRIRLRPPRLPRPRPRPIGTPRP, -0.0773. As for RRIRWRPPRLPRPRPRPWDVPRP, the figure is 0.0249. For RRIRMRPPRLPRPRPRPKKVPRP, the “shrunken log2 fold change” value came to 0.561. As for RRIRTRPPRLPRPRPRPNYRPRP, the “shrunken log2 fold change” value was -0.0168. For the sequence RRIRERPPRLPRPRPRPHQVPRP, the “shrunken log2 fold change” value was -0.0847. As for RRIRFRPPRLPRPRPRPYRSPRP, the figure is -0.975; as for RRIRLRPPRLPRPRPRPYRYPRP, -0.254; as for RRIRYRPPRLPRPRPRPCHIPRP, -0.0462.

Turning to RRIRGRPPRLPRPRPRPYHSPRP, the “shrunken log2 fold change” value is -0.861.

In the case of RRIRKRPPRLPRPRPRPDPSPRP, the “shrunken log2 fold change” value is -0.0338.

Take RRIRPRPPRLPRPRPRPRVWPRP: the “shrunken log2 fold change” value came to 0.482.

As for RRIRMRPPRLPRPRPRPLMKPRP, the “shrunken log2 fold change” value is 0.313. As for RRIRFRPPRLPRPRPRPRWSPRP, the figure is 0.112. For RRIRHRPPRLPRPRPRPVMIPRP the value was -0.0805; for RRIRFRPPRLPRPRPRPNKMPRP, -0.231; for RRIRWRPPRLPRPRPRPAQRPRP, 0.418. As for RRIRQRPPRLPRPRPRPWTCPRP, the figure is 0.0112; as for RRIRKRPPRLPRPRPRPFVYPRP, -0.014. Take RRIRARPPRLPRPRPRPENIPRP: the “shrunken log2 fold change” value is -0.251. Consider RRIRERPPRLPRPRPRPRSSPRP, for which the “shrunken log2 fold change” value stood at 0.116. For RRIRQRPPRLPRPRPRPARMPRP, the “shrunken log2 fold change” value was 0.195.

For RRIRLRPPRLPRPRPRPEMVPRP, the “shrunken log2 fold change” value was 0.201. As for RRIRRRPPRLPRPRPRPSMIPRP, the figure is -0.114; as for RRIRCRPPRLPRPRPRPDQVPRP, -0.183.

In the case of RRIRARPPRLPRPRPRPKRGPRP, the “shrunken log2 fold change” value was found to be 0.565.

Turning to RRIRIRPPRLPRPRPRPFKFPRP, the “shrunken log2 fold change” value is -0.702. With RRIRGRPPRLPRPRPRPWCSPRP, the “shrunken log2 fold change” value is -0.0965. Turning to RRIRNRPPRLPRPRPRPSWPPRP, the “shrunken log2 fold change” value is -0.0605.

Regarding RRIRKRPPRLPRPRPRPPPRPRP, the “shrunken log2 fold change” value stood at 1.32.

Turning to RRIRQRPPRLPRPRPRPLKMPRP, the “shrunken log2 fold change” value was -0.269. For RRIRMRPPRLPRPRPRPMLTPRP the value was 2.52; for RRIRNRPPRLPRPRPRPLHFPRP, -0.563; for RRIRRRPPRLPRPRPRPDVYPRP, -0.0445.

Regarding RRIRVRPPRLPRPRPRPAPSPRP, the “shrunken log2 fold change” value amounted to 0.342. As for RRIRLRPPRLPRPRPRPCQHPRP, the “shrunken log2 fold change” value is -0.382. As for RRIRTRPPRLPRPRPRPETPPRP, the figure is 0.493.
